Measurements: patent US20230322924A1 (Janssen / Centocor, published 2023)
Blank lines part the entries; values can stand above or below the binder they belong to.

Key:
[1] = target: T1, human CD33, full length, on cells (human, UniProt P20138 18-364); assay: flow cytometry on CD33 expressing HEK293F cells
T1 construct: SH2 and OCIAML3 carry SNP rs12459419 (hetero-/homozygous), which leads to a form without the V domain; also called Human CD33 (HEK293F transfectants); CD33 on AML cell lines KG1, SH2, OCIAML3
T1 sequence (P20138 18-364 limits assumed): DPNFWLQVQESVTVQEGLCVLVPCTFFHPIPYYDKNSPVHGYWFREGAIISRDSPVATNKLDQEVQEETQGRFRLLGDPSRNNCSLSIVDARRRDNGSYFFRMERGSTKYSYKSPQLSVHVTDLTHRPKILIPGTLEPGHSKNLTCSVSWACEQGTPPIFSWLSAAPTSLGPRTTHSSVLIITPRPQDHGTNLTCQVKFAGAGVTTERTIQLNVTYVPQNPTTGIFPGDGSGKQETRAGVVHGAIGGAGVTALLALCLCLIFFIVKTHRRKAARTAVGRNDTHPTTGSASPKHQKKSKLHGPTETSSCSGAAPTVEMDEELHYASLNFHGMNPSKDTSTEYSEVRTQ
Description: OMNIRat antibodies identified via immunization, v-region cloned and subsequently expressed and purified were characterized further for binding to CD33 expressing cells and binding to recombinant antigens. The purified antibodies were assessed for binding to stably transfected HEK293F cells expressing human CD33 or cyno CD33 (generation described above) along with the parental HEK293F as negative control. Cells were harvested from tissue culture flasks using non-enzymatic dissociation buffer (Thermo Scientific). The flasks were rinsed twice with PBS and dissociation buffer was added to the flask, and the flask was incubated for 10 minutes at 37° C. until the cells became non-adherent. The cells were centrifuged at 300 g for 5 minutes and resuspended at 1.0×10⁶ cells/ml in staining buffer (Becton Dickinson; Franklin Lakes, NJ). 50,000 cells/well of each cell type was plated in 50 μl of staining buffer in round bottom plates (Becton Dickinson). […] 30 μl running buffer containing Sytox Green live/dead dye (ThermoFisher) was added to all wells with cells and the plates were read on an iQue IntelliCyt flow cytometer. […] Antibody binding was assessed by the mean fluorescence intensity in the AF647 channel.

Human CD33 ECD-HSA = target: T2, Human CD33 ECD-HSA (human); assay: SPRi off-rate screen (IBIS MX96)
T2 construct: CD33 ECD fused at the C-terminus to monomeric HSA (C58S) and a six-histidine tag; also called C33W2; huCD33 ECD-HSA

Human CD33-V-HSA = target: T3, Human CD33-V-HSA (human); assay: SPRi off-rate screen (IBIS MX96)
T3 construct: V domain of human CD33 fused to HSA; also called C33W3; huCD33-V-HSA

[2] = target: T4, human PSMA on cells (LNCaP) (human, UniProt Q04609 1-750); assay: flow cytometry on LNCaP cells
T4 construct: whole, on cells; also called LNCaP cells
T4 sequence (Q04609 whole entry): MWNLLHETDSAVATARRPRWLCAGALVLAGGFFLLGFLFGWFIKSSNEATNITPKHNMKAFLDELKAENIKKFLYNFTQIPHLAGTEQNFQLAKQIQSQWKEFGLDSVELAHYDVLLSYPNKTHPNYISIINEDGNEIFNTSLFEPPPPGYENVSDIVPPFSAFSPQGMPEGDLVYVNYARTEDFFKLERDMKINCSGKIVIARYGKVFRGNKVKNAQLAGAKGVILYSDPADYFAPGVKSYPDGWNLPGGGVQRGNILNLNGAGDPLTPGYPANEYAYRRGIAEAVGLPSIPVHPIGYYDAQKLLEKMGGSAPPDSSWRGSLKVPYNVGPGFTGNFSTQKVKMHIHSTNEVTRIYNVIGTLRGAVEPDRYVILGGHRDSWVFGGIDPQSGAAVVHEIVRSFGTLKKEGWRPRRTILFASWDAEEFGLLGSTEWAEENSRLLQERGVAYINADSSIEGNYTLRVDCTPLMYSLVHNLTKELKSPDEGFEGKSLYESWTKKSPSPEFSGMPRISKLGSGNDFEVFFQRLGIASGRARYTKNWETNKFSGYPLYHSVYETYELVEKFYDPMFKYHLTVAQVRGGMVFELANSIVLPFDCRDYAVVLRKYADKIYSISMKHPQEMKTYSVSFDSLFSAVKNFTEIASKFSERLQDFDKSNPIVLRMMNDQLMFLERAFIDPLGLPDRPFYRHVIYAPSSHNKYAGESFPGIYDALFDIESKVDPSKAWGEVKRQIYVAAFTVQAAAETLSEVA
Description: PSMA×CD3 bispecific antibodies were tested for binding to PSMA positive cell line, LNCAP, to PSMA negative cell line, PC3. To assess the binding capabilities of the PSMA bispecific antibodies, the cell-binding assay was utilized (described previously). Bispecific antibodies were normalized for protein concentration and then incubated with the same number of cells expressing either human or cyno PSMA. The MFI at each concentration was collected by flow cytometry and plotted as a function of concentration. Data was transformed via log 10 and then plotted. Nonlinear regression of binding curves was done to determine EC50s.

[3] = target: T5, human CD3 on human T cells (human, UniProt P07766 23-207); assay: flow cytometry, primary human T cells, AF647 anti-human IgG F(ab')2 secondary
T5 construct: Native TCR-CD3 complex on cells; also called primary human T cells; human pan T cells
T5 sequence (P07766 23-207 limits assumed): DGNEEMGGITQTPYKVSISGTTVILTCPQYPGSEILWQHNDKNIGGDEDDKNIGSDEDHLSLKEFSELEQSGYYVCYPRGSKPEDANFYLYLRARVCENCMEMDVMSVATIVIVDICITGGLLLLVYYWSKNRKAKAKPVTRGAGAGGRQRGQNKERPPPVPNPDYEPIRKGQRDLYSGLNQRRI
Description: The 80 mutant clones were assayed for binding to primary human T cells (FIGS. 7 and 8). […] The plates were centrifuged at 300×g for 5 minutes to pellet the cells and the supernatant removed. The plate was gently vortexed briefly to resuspend the cells.

N-terminal CD3ε peptide = target: T6, N-terminal CD3ε peptide; assay: Biacore 8K SPR, antibody captured on anti-human Ig, peptide as analyte
T6 construct: domain: N-terminal CD3ε peptide
T6 sequence (P07766 22-48): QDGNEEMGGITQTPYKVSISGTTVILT
Description: Kinetic rate constants were measured by SPR performed using Biacore 8K (GE Healthcare) and anti-human Fc biosensor surfaces. Anti-human immunoglobulin antibodies were covalently coupled to the surface of a CM4 sensor chip (GE Healthcare). Antibodies of interest were captured on the anti-human immunoglobulin sensor chip, followed by injection of N-terminal CD3ε peptide at various concentrations in HEPES Buffered Saline containing 0.05% surfactant P20 (Tween™ 20) and 100 ug/mL BSA. The surface was regenerated with 2 pulses injections of 30 μL of 0.8% phosphoric acid at 100 μL/min. Data reported is the difference in SPR signal between the flow cell containing the captured antibody and a reference cell without captured antibody. Additional instrumental contributions to the signal were removed by subtraction of the data from the blank injection from the reference-subtracted signal. The data were analyzed by fitting association and dissociation phases at all concentrations (global fit) with a 1:1 binding model using the Biaevaluation software (Biacore, Inc.). Data is reported as average+95% CI (Confidence Interval) which is calculated by t value for 95% CI*stdev/square root of the number of replicates.

Human IgG = assay: Biacore 8K non-specific binding test, antibody over immobilised protein
Description: (§1) Non-specific binding of the lead molecule to unrelated surfaces is determined by biosensor technology (Biacore 8K). Antibody is passed over SPR surfaces coated with unrelated proteins. […] Irrelevant surfaces include negatively charged protein (Soy Trypsin Inhibitor), positively charged protein (Lysozyme and β-defensin), hydrophobic (Rh-integrin a4b7), human IgG, sticky protein (Rh-CD19). Proper controls are used in this experiment. Lead is flown over two surfaces, one is a blank and the other has a molecule directly immobilized. The response unit (RU) level is determined by subtracting the blank RU from the test surface RU. […] A response unit ≥100 predicts high risks for non-specific binding to charged/hydrophobic/IgG surfaces which would create challenges during manufacturing and translate to poor PK properties.

Lysozyme = assay: as above
Sequence of Lysozyme (P00698 19-147): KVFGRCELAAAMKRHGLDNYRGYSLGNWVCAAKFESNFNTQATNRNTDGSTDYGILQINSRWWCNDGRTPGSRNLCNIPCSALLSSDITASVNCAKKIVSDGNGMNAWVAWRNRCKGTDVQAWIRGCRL
Description: as §1

rh-Integrin a4b7 = rh-Integrin a4b7 (UniProt P13612 34-977; P26010 20-723, limits assumed); assay: as above
Description: as §1

Soy Trypsin Inhibitor = target: T7, Soy Trypsin Inhibitor (soy, UniProt P01070 25-205); assay: as above
T7 construct: also called STI
T7 sequence (looked up): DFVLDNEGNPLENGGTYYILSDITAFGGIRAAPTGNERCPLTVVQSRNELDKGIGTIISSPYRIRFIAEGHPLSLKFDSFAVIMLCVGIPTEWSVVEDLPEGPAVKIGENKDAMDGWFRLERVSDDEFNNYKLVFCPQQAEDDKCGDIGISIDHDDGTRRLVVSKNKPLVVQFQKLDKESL
Description: as §1

rh-CD19 = target: T8, rh-CD19 (UniProt P15391 20-291, limits assumed); assay: as above
T8 sequence (looked up): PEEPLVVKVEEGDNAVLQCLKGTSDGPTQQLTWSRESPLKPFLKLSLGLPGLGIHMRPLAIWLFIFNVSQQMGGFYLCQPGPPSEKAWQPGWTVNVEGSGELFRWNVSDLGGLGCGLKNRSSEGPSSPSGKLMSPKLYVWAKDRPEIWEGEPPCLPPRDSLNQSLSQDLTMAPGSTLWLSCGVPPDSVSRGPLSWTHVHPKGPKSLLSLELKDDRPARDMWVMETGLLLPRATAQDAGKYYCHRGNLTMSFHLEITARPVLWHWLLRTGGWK
Description: as §1

B-Defensin-3 = target: T9, B-Defensin-3; assay: as above
T9 construct: also called β-defensin
T9 sequence (P81534 23-67): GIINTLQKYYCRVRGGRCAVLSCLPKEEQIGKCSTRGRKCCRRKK
Description: as §1

B1: C33B909 (antibody, V domains shown)
VH: EVQLVESGGGLVQPGRSLRLSCVASGFTFDDYAIHWVRQAPGKGLEWVSGLSWNGGNIGYADSVKGRFTISRDNAKNSLYLQMNSLKTEDTAFYYCTKDTPYGDYFDYWGQGTLVTVSS
VL: DIQMTQSPSSVWASVGDRVTITCRASQGISSWLAWYQQQPGKAPNLLIYRSSSLQSGVPSRFSGSGSGTDFTLTISSLQPEDFATYYCQQDNSFPYTFGQGTKLEIK
notes: OmniMouse clone; also called C33H249/C33L115
- binding result [1]: no binding (tested: 60 nM highest tested)

B3: PS3B90 (bispecific antibody, human IgG4 S228P, kappa, lambda, F234A L235A)
heavy 1: not shown
light 1: not shown
heavy 2: QVQLQQSGPRLVRPSQTLSLTCAISGDSVFNNNAAWSWIRQSPSRGLEWLGRTYYRSKWLYDYAVSVKSRITVNPDTSRNQFTLQLNSVTPEDTALYYCARGYSSSFDYWGQGTLVTVSSASTKGPSVFPLAPCSRSTSESTAALGCLVKDYFPEPVTVSWNSGALTSGVHTFPAVLQSSGLYSLSSVVTVPSSSLGTKTYTCNVDHKPSNTKVDKRVESKYGPPCPPCPAPEAAGGPSVFLFPPKPKDTLMISRTPEVTCVVVDVSQEDPEVQFNWYVDGVEVHNAKTKPREEQFNSTYRVVSVLTVLHQDWLNGKEYKCKVSNKGLPSSIEKTISKAKGQPREPQVYTLPPSQEEMTKNQVSLTCLVKGFYPSDIAVEWESNGQPENNYKTTPPVLDSDGSFLLYSKLTVDKSRWQEGNVFSCSVMHEALHNHYTQKSLSLSLGK
light 2: QSALTQPASVSGSPGQSITISCTGTSSNIGTYKFVSWYQQHPDKAPKVLLYEVSKRPSGVSSRFSGSKSGNTASLTISGLQAEDQADYHCVSYAGSGTLLFGGGTKLTVLGQPKAAPSVTLFPPSSEELQANKATLVCLISDFYPGAVTVAWKADSSPVKAGVETTTPSKQSNNKYAASSYLSLTPEQWKSHRSYSCQVTHEGSTVEKTVAPTECS
notes: IgG4 PAA; also called PSMB365 x CD3B376
- binding result [2]: binds

B5: CD3B376 (antibody, human IgG4 S228P, lambda, F234A L235A, V domains shown)
VH: QVQLQQSGPRLVRPSQTLSLTCAISGDSVFNNNAAWSWIRQSPSRGLEWLGRTYYRSKWLYDYAVSVKSRITVNPDTSRNQFTLQLNSVTPEDTALYYCARGYSSSFDYWGQGTLVTVSS
VL: QSALTQPASVSGSPGQSITISCTGTSSNIGTYKFVSWYQQHPDKAPKVLLYEVSKRPSGVSSRFSGSKSGNTASLTISGLQAEDQADYHCVSYAGSGTLLFGGGTKLTVLG
notes: Bivalent anti-CD3 parental mAb, IgG4 PAA with F405L and R409K; also called CD3H219/CD3L150
- Kd (N-terminal CD3ε peptide): 26.9 nM
- koff (N-terminal CD3ε peptide): 0.00117 s⁻¹
- kon (N-terminal CD3ε peptide): 43300 M⁻¹ s⁻¹
- response units (RU) (Human IgG): 0.4 RU
- response units (RU) (Lysozyme): 0.2 RU
- response units (RU) (rh-Integrin a4b7): 0 RU
- response units (RU) (Soy Trypsin Inhibitor): 19.5 RU
- response units (RU) (rh-CD19): 0 RU
- response units (RU) (B-Defensin-3): 3.1 RU

More lines, now with the values ahead:

- koff (Human CD33 ECD-HSA): 5.52e-05 s⁻¹
- koff (Human CD33-V-HSA): 3.71e-05 s⁻¹
B2: C33B836 (antibody, IgG4, V domains shown)
VH: QVQLVQSGSELRKPGASVKVSCKASGYTFTNYAMNWVRQAPGQGLEWMGWINTNTGNPTYAQGFTGRFVFSLDTSVSSAYLQISSLKAEDTAMYYCATDRDRGTDYWGQGTLVTVSS
VL: QSALTQPASVSGSPGQSITISCTGTSSDVGDYNYVSWYQQHPGKVPKLMIYDVSNRPSGVSNRFSGSMSGNTASLTISGLQAEDEADYYCSSYSSSSALEVFGGGTKLTVL
notes: OMNIRat-derived; same V regions as C33B48; also called C33H80/C33L73; C33F53

- binding result [3]: no binding (tested: 50 nM)
B4: D43G/V48L/L49M/L50I/S62N/Q85E/H89Y LC (with WT HC) (antibody, V domains shown)
VH: QVQLQQSGPRLVRPSQTLSLTCAISGDSVFNNNAAWSWIRQSPSRGLEWLGRTYYRSKWLYDYAVSVKSRITVNPDTSRNQFTLQLNSVTPEDTALYYCARGYSSSFDYWGQGTLVTVSS
VL: QSALTQPASVSGSPGQSITISCTGTSSNIGTYKFVSWYQQHPGKAPKLMIYEVSKRPSGVSNRFSGSKSGNTASLTISGLQAEDEADYYCCSYAGSGTLLFGGGTKLTVL
notes: also called BLW-2E6 variant CD3H219/CD3L136
